The record followed here is the nanobody polyreactivity screen of Harvey et al. (2022).

The nature of the data set: yeast display, Sf9 membrane polyspecificity reagent, FACS + sequencing; frameworks hold sequencing errors. The method in brief: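 Galactose-induced (36–48 hours) yeast carrying a synthetic nanobody display library were exposed to 10% biotinylated, detergent-solubilized Sf9 membrane reagent at 4 °C for 1 hour. FACS followed streptavidin microbead enrichment, using low and high (top ~1%) gates for expression (anti-HA) and reagent binding (streptavidin). Colony PCR, MiSeq 2 × 250 sequencing and CDR-length filtering followed. Labels for polyreactivity reflect the gate of origin.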
“QVQLVESGGGLVQAGGSLRLSCAASGLTFYGYGMGWYRQAPGKERELVASITSGGNTYYADSVKGRFTISRDNAKNTVYLKMNSLKPEDTAVYYCAVTAIALYYSSGYYWGQGTQVTVSS”: the “polyreactivity (PSR sort gate)” value is “low polyreactivity”. As to “QVQLVESGGGLVQAGGSLRLSCAASGLTFYHYAMGWYRQAPGIERELVAAISYSGSRTYYADSVKGRFTISRDTAKNTVYLQMNSLKPEVTAVYYCAAKRTKEYDYWGQGTQVTVSS”, the “polyreactivity (PSR sort gate)” value is recorded as “high polyreactivity”. Then “QVQLVESGGGLVQAGGSLRLSCAASGLTFYHYHMGWYRQAPGKERELVAAITIGGSTYYADSVKGRFTISRDNAKNTVYLQMNSLKPEDTEVYYCAAEPQRDSSGLDYWGQGTQVTVSS”, with “low polyreactivity”; and “QVQLVESGGGLVQAGGSLRLSCAASGLTFYIYAMGWSRQAPGKERELVAGISWIGGRTYYADSVKGRFTISRDNAKNTVYLQLNSLKPEDTAVYYCIAYLSYTSRGRYYKYDYWGQGTQVTVSS”, with “high polyreactivity”. The same measure for “QVQLVESGGGLVQAGGSLRLSCAASGLTFYIYAMGWYRQAPGKEREFVAAIRRSDARTYYADSVKGRFTISRDNAKNTVYLQMNSLKPEDTAVYYCARPPWFTGYNSGYWGQGTQVTVSS”: “high polyreactivity”; for “QVQLVESGGGLVQAGGSLRLSCAASGLTFYIYAMGWYSQAPGKERELVAAVSNGGGNTYYADSVKGRCTISRDNAKNTVYLQMNSLKPEDTAVYYCAAKNDYVYPINPLYYYWGQGTQVTVSS”: “high polyreactivity”. On to “QVQLVESGGGLVQAGGSLRLSCAASGLTFYLYAMGWNRQAPGKERELVAAINSRGGNTYYADSVKGRFTISRDNAKNTVYLQMNSLKPEDTAVYYCNAGRTFYSYAYGYWGQGTQVTVSS”, for which the “polyreactivity (PSR sort gate)” value was “high polyreactivity”. The same measure for “QVQLVESGGGLVQAGGSLRLSCAASGLTFYPNAMGWYRQAPGKEREFVASISISGRTYYADSVKGRFTISRDNAKNTVYLQMNSLKPEDTAVYYCAARYVRSGLYRKYDYWGQGTQVTVSS”: “high polyreactivity”; for “QVQLVESGGGLVQAGGSLRLSCAASGLTFYQYAMGWSRQAPGKERELVAAISKSAGSTYYADSVKGRFTISRDNAKNTVYLQMNSLKPEDTAVYYCAARVLRLRYDYWGQGTQVTVSS”: “high polyreactivity”. The same measure for “QVQLVESGGGLVQAGGSLRLSCAASGLTFYSNAMGWYRQAPGKERELVARISTGGSTYADSEKGRFTISRDNAKNTVYLQMNSLKPEDTSFFYCAKLPPRGIDDEYWGQGTQVTVSS”: “low polyreactivity”; for “QVQLVESGGGLVQAGGSLRLSCAASGLTFYSYAMGWYRQAPGKERELVAAITSSDGSTYYADSVKGRFTISRDNAKNTVYLQMNSLKPEDTAVYYCNKDDNSYGLNYWGQGTQVTVSS”: “low polyreactivity”; for “QVQLVESGGGLVQAGGSLRLSCAASGLTFYSYARGWYRQAPGKERELVATISGGGSTTYADSVKGRFTISRDNAKNTVYLQMNSLKPEDTAVYYCAAGYFLPVVWSTTNYIYDYWGQGTQVTVSS”: “high polyreactivity”. Then “QVQLVESGGGLVQAGGSLRLSCAASGLTFYTYAMGWYRQAPGKERELVAAISTNGGSTYADSVKGRFTISRDNAKNTVYLQMNSLKPEDTAVYYCAAVYRTTRYGYWGQGTQVTVSS”, with “low polyreactivity”; and “QVQLVESGGGLVQAGGSLRLSCAASGLTFYVYAMGWYRQAPGKERELVAAINWSGGNTYYADSVKGRFTISRDNAKNTVYLQMNSLKPEDTAVYYCAAELYYPVGFDYWGQGTQVTVSS”, with “high polyreactivity”. “QVQLVESGGGLVQAGGSLRLSCAASGLTFYVYAMGWYRQAPGKERELVAAISSGGRTYYADSVKGRFTISRDNAKNTVYLQMNSLKPEDTAVYYCAAVRHRNYWGQGTQVTVSS”: the “polyreactivity (PSR sort gate)” value is listed as “high polyreactivity”.

For “QVQLVESGGGLVQAGGSLRLSCAASGLTFYWYVMGWYRQAPGKERELVAAITGGGSSTYYADSVKGRFTISRDNAKNTVYLQMNSLKPEDTAVYYCAADYRGGIRYYRGAAYNYWGQGTQVTVSS”, the “polyreactivity (PSR sort gate)” value was “high polyreactivity”. The same measure for “QVQLVESGGGLVQAGGSLRLSCAASGLTFYYYAMGWYRQAPGKERELVATITSSGARTYYADSVKGRFTISRDNAKNTVYLQMNSLKPEDTEVYYCAADYGIWQRGSHYWDMDYWGQGTQVTVSS”: “high polyreactivity”; for “QVQLVESGGGLVQAGGSLRLSCAASGLTFYYYDMGWYRQAPGKERELVAAITSGGSSTYYADSVKGRITISRDNAKNTVYLQMNSLKPEDTAVYYCNADSPYIPYIYDYWGQGTQVTVSS”: “low polyreactivity”. For the sequence “QVQLVESGGGLVQAGGSLRLSCAASGLTFYYYVMGWYRQAPGKERELVAAINATGGRTYYADSVKGRFTISRDNAKNTVYLQMNSLKPEDTAVYYCAAYSGFYASYDYWGQGTLVTVSS”, the “polyreactivity (PSR sort gate)” value is listed as “low polyreactivity”. Then “QVQLVESGGGLVQAGGSLRLSCAASGLTIFVNAMGCYRQAPGKERELVATISGGGSTYYADSVKGRFTISRDNAKNTVYLQMNSLKPEDTAVYYCNADVLFYTYYTRGRFDFDYWGQGTQVTVSS”, with “low polyreactivity”. The same measure for “QVQLVESGGGLVQAGGSLRLSCAASGLTIGYYAMGWYRQAPGKERELVATITWRGVRTYYADSVKGRFTISRDNAKNTVYLQMNSLKPEDTAVYYCDKGYWSKGERWFGGFGYWGQGTQVTVSS”: “low polyreactivity”; for “QVQLVESGGGLVQAGGSLRLSCAASGLTINGNTMGLYRQAPGKERELVAVIDWSGGSTYYADSVKGRFTISRDNAKNTVYLQMNSLKPEDTAVYYCNAETRDPILYGEYDYWGQGTQVTVSS”: “low polyreactivity”. With “QVQLVESGGGLVQAGGSLRLSCAASGLTIQRNDMGWYRQAPGKEREFVATITSNAGSTYYADSVKGRFTISRDNAKNTVYLQMNSLKPEDTAVYYCARERWWGDGYWGQGTQVTVSS”, the “polyreactivity (PSR sort gate)” value is “high polyreactivity”. In the case of “QVQLVESGGGLVQAGGSLRLSCAASGLTIWANTKGWYRQAPGKERELVAAISLSDGSTYYADSVKGRFTISRDNAKNTVYVQMNSLKPEDTAVYYCAARVQHYLATDDYWGQGTQVTVSS”, the “polyreactivity (PSR sort gate)” value is “low polyreactivity”. Then “QVQLVESGGGLVQAGGSLRLSCAASGLTIYHYAMGWYRQAPGKERELVAAISWNGGSTYYADSVKGRFTISRDNAKNTVYLQMNSLKPEDTAVYYCAVVFNPHRYTGVLAGYDYWGQGTQVTVSS”, with “high polyreactivity”. On to “QVQLVESGGGLVQAGGSLRLSCAASGLTLAWYAMGWYRQAPGKERELVAAISWSGDSTYYADSVKGRFTISRDNAKNTVYLQMNSLKPEDTEVYYCATRVYGGYGYWGQGTQVTVSS”, for which the “polyreactivity (PSR sort gate)” value is “high polyreactivity”. Then “QVQLVESGGGLVQAGGSLRLSCAASGLTLEGYVMGWYRQAPGKERELVAAISRRGASTYYADSVKGRFTISRDNAKNTVYLQMNSLKTEDTAVYYCAAYGAYNNYRGQTSLGYGYDSWGQGTQVTVSS”, with “high polyreactivity”; and “QVQLVESGGGLVQAGGSLRLSCAASGLTLGHNAMGWYRQAPGKERELVAAITNYADSVKGRFTISRDNAKNTVYLQMNSLKPEDTAVYYCAADWWRVEMDYWGQGTQVTVSS”, with “low polyreactivity”; and “QVQLVESGGGLVQAGGSLRLSCAASGLTLQGYVMGWSRQAPGKERELVAAISTGGSTHYADSVKGRFTISRDNAKNTVYLQMNSLKPEDTAVYYCAAGWVLWFRDPQGRASYYWGQGTQVTVSS”, with “high polyreactivity”. The same measure for “QVQLVESGGGLVQAGGSLRLSCAASGLTLRRYAMGWYIQAPGKERELVASINSGTSTKYADSVKGRFTISRDNAKNTVYLQMKSLKPEDTALYYCGAAVYFPTAGSRRAYYYWGQGTQGTVSS”: “high polyreactivity”.
